Target: Biotinylated human ACE2 ectodomain (ACROBiosystems AC2-H82E6), native dimeric form (human) (UniProt Q9BYF1)
Test: FACS

Sequence of Biotinylated human ACE2 ectodomain (ACROBiosystems AC2-H82E6), native dimeric form (human) (Q9BYF1 18-740): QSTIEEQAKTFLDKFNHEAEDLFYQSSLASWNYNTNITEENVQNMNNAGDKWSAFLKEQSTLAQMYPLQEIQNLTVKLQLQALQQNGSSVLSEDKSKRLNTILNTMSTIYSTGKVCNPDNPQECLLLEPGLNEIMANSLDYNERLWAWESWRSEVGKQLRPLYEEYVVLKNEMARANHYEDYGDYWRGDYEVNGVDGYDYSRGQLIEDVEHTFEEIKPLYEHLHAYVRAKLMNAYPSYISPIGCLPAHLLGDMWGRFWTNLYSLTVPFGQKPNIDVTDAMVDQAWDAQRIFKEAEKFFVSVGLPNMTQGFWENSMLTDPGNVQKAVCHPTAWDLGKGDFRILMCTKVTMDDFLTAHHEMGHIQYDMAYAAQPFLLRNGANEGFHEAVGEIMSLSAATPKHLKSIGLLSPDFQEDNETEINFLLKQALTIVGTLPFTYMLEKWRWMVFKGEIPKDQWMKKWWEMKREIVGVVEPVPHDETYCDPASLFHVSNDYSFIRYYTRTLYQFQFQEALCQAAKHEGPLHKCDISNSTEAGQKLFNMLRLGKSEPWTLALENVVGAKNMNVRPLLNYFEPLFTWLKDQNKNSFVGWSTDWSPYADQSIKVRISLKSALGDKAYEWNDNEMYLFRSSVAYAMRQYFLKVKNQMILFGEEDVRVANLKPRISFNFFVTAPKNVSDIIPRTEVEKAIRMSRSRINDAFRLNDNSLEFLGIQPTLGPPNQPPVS

Substance | Kd [nM]
WIV1 RBD, yeast-displayed | 0.017
ZC45 RBD, yeast-displayed | > 1000
ZXC21 RBD, yeast-displayed | > 1000

Reference: article PMC7418704
